*1 amine or outer side, *2 acyl side, *3 side chain or, on linkers, in order; H or OH if unused. Where no end group is shown, it is not given here. Side-chain parts run from the residue outwards. [ ]: non-standard residue; d: D form. The star is where a group is joined. C16 diacid = O=C(O)CCCCCCCCCCCCCCC(=O)*; γGlu = O=C(O)[C@H](CCC(=O)[*:2])N[*:1]; Palmitoyl = CCCCCCCCCCCCCCCC(=O)*; Decanoyl = CCCCCCCCCC(=O)*; Aib = CC(C)(N)C(=O)O

Test [1] addresses T1, human glucose-dependent insulinotropic polypeptide receptor (human, UniProt P48546 22-466).
T1 sequence (looked up): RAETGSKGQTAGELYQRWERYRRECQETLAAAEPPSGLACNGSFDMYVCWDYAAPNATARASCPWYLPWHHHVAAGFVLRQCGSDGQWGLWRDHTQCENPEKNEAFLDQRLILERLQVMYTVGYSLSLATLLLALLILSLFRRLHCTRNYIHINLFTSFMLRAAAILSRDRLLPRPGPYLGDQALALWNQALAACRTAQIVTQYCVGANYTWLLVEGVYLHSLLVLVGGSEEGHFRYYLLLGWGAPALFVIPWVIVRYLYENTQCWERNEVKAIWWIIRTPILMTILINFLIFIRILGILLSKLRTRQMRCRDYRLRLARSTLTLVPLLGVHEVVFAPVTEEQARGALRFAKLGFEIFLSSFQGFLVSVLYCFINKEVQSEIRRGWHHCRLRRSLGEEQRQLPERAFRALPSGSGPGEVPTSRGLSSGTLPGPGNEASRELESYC
The experiment in a line: cell-based or functional assay.

The target in test [2] is T2, human glucagon-like peptide-2 receptor (human, UniProt O95838 1-553).
T2 sequence (looked up): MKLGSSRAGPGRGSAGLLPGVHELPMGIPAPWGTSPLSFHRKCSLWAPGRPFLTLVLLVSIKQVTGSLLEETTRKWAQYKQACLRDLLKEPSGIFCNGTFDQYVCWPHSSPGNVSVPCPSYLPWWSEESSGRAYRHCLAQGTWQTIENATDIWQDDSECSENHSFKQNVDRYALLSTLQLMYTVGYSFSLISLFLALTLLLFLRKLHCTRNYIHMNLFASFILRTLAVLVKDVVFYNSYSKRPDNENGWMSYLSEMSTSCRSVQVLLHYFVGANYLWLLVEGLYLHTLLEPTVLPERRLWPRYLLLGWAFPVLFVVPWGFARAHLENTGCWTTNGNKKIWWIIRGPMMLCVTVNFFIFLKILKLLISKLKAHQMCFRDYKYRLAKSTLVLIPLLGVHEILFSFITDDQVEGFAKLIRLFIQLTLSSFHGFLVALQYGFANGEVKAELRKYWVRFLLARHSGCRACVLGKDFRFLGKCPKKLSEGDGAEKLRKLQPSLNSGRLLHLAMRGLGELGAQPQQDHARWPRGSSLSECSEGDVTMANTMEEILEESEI
The experiment in a line: cell-based or functional assay.

B1: Compound no. 6 (peptide)
peptide: Palmitoyl-H[Aib]DGTFISDYSTILD[Aib]LAARDFINWLIQTKITK-OH
SMILES: CCCCCCCCCCCCCCCC(=O)N[C@@H](Cc1c[nH]cn1)C(=O)NC(C)(C)C(=O)N[C@@H](CC(=O)O)C(=O)NCC(=O)N[C@H](C(=O)N[C@@H](Cc1ccccc1)C(=O)N[C@H](C(=O)N[C@@H](CO)C(=O)N[C@@H](CC(=O)O)C(=O)N[C@@H](Cc1ccc(O)cc1)C(=O)N[C@@H](CO)C(=O)N[C@H](C(=O)N[C@H](C(=O)N[C@@H](CC(C)C)C(=O)N[C@@H](CC(=O)O)C(=O)NC(C)(C)C(=O)N[C@@H](CC(C)C)C(=O)N[C@@H](C)C(=O)N[C@@H](C)C(=O)N[C@@H](CCCNC(=N)N)C(=O)N[C@@H](CC(=O)O)C(=O)N[C@@H](Cc1ccccc1)C(=O)N[C@H](C(=O)N[C@@H](CC(N)=O)C(=O)N[C@@H](Cc1c[nH]c2ccccc12)C(=O)N[C@@H](CC(C)C)C(=O)N[C@H](C(=O)N[C@@H](CCC(N)=O)C(=O)N[C@H](C(=O)N[C@@H](CCCCN)C(=O)N[C@H](C(=O)N[C@H](C(=O)N[C@@H](CCCCN)C(=O)O)[C@@H](C)O)[C@@H](C)CC)[C@@H](C)O)[C@@H](C)CC)[C@@H](C)CC)[C@@H](C)CC)[C@@H](C)O)[C@@H](C)CC)[C@@H](C)O
In the case of B1, in test [1], the “Efficacy GIPR” value was 108%. Moreover, the “Efficacy GLP-2R” value in test [2] was found to be 91%.

B2: Compound no. 9 (peptide)
peptide: H-H[Aib]DGK([γGlu-Palmitoyl])FISDYSTILDNLAARDFINWLIQTKITK-OH
SMILES: CCCCCCCCCCCCCCCC(=O)N[C@@H](CCC(=O)NCCCC[C@H](NC(=O)CNC(=O)[C@H](CC(=O)O)NC(=O)C(C)(C)NC(=O)[C@@H](N)Cc1c[nH]cn1)C(=O)N[C@@H](Cc1ccccc1)C(=O)N[C@H](C(=O)N[C@@H](CO)C(=O)N[C@@H](CC(=O)O)C(=O)N[C@@H](Cc1ccc(O)cc1)C(=O)N[C@@H](CO)C(=O)N[C@H](C(=O)N[C@H](C(=O)N[C@@H](CC(C)C)C(=O)N[C@@H](CC(=O)O)C(=O)N[C@@H](CC(N)=O)C(=O)N[C@@H](CC(C)C)C(=O)N[C@@H](C)C(=O)N[C@@H](C)C(=O)N[C@@H](CCCNC(=N)N)C(=O)N[C@@H](CC(=O)O)C(=O)N[C@@H](Cc1ccccc1)C(=O)N[C@H](C(=O)N[C@@H](CC(N)=O)C(=O)N[C@@H](Cc1c[nH]c2ccccc12)C(=O)N[C@@H](CC(C)C)C(=O)N[C@H](C(=O)N[C@@H](CCC(N)=O)C(=O)N[C@H](C(=O)N[C@@H](CCCCN)C(=O)N[C@H](C(=O)N[C@H](C(=O)N[C@@H](CCCCN)C(=O)O)[C@@H](C)O)[C@@H](C)CC)[C@@H](C)O)[C@@H](C)CC)[C@@H](C)CC)[C@@H](C)CC)[C@@H](C)O)[C@@H](C)CC)C(=O)O
Take B2: the “Efficacy GIPR” value in test [1] was found to be 110%. The “Efficacy GLP-2R” value in test [2] was 91%.

For Palmitoyl-HADGTFISDYSTILDNLAARDFINWLIQTKITD [Compound no. 1], in test [1], the “Efficacy GIPR” value worked out at 96%.

In the case of H[Aib]DGTFISDYK([γGlu-Palmitoyl])T[Aib]LDNLAARDFINWLIQTKITKNDWKHNITQ-OH [Compound no. 37], the “Efficacy GIPR” value in test [1] was 95%.

B3: Compound no. 30 (peptide)
peptide: H[Aib]DGTFISDYK([γGlu-Decanoyl])T[Aib]LDNLAARDFINWLIQTKITD-OH
modifications: N-terminus assumed
SMILES: CCCCCCCCCC(=O)N[C@@H](CCC(=O)NCCCC[C@H](NC(=O)[C@H](Cc1ccc(O)cc1)NC(=O)[C@H](CC(=O)O)NC(=O)[C@H](CO)NC(=O)[C@@H](NC(=O)[C@H](Cc1ccccc1)NC(=O)[C@@H](NC(=O)CNC(=O)[C@H](CC(=O)O)NC(=O)C(C)(C)NC(=O)[C@@H](N)Cc1c[nH]cn1)[C@@H](C)O)[C@@H](C)CC)C(=O)N[C@H](C(=O)NC(C)(C)C(=O)N[C@@H](CC(C)C)C(=O)N[C@@H](CC(=O)O)C(=O)N[C@@H](CC(N)=O)C(=O)N[C@@H](CC(C)C)C(=O)N[C@@H](C)C(=O)N[C@@H](C)C(=O)N[C@@H](CCCNC(=N)N)C(=O)N[C@@H](CC(=O)O)C(=O)N[C@@H](Cc1ccccc1)C(=O)N[C@H](C(=O)N[C@@H](CC(N)=O)C(=O)N[C@@H](Cc1c[nH]c2ccccc12)C(=O)N[C@@H](CC(C)C)C(=O)N[C@H](C(=O)N[C@@H](CCC(N)=O)C(=O)N[C@H](C(=O)N[C@@H](CCCCN)C(=O)N[C@H](C(=O)N[C@H](C(=O)N[C@@H](CC(=O)O)C(=O)O)[C@@H](C)O)[C@@H](C)CC)[C@@H](C)O)[C@@H](C)CC)[C@@H](C)CC)[C@@H](C)O)C(=O)O
B3: in test [2], the “Efficacy GLP-2R” value amounted to 81%.

Take {C16 diacid}-H[Aib]EGTFISDYST[Aib]LDNLAAKDFINWLIQTKITKNDWKHNITQ-OH [Compound no. 43]: in test [2], the “Efficacy GLP-2R” value came to 73%.

Turning to Palmitoyl-HADGTFISDYSTILDNLAAKDFINWLIQTKITK [Compound no. 45], the “Efficacy GIPR” value in test [1] was 91%.

B4: Compound no. 36 (peptide)
peptide: Ac-H[Aib]DGTFISDYSK([γGlu-Palmitoyl])[Aib]LDNLAARDFINWLIQTKITK-OH
SMILES: CCCCCCCCCCCCCCCC(=O)N[C@@H](CCC(=O)NCCCC[C@H](NC(=O)[C@H](CO)NC(=O)[C@H](Cc1ccc(O)cc1)NC(=O)[C@H](CC(=O)O)NC(=O)[C@H](CO)NC(=O)[C@@H](NC(=O)[C@H](Cc1ccccc1)NC(=O)[C@@H](NC(=O)CNC(=O)[C@H](CC(=O)O)NC(=O)C(C)(C)NC(=O)[C@H](Cc1c[nH]cn1)NC(C)=O)[C@@H](C)O)[C@@H](C)CC)C(=O)NC(C)(C)C(=O)N[C@@H](CC(C)C)C(=O)N[C@@H](CC(=O)O)C(=O)N[C@@H](CC(N)=O)C(=O)N[C@@H](CC(C)C)C(=O)N[C@@H](C)C(=O)N[C@@H](C)C(=O)N[C@@H](CCCNC(=N)N)C(=O)N[C@@H](CC(=O)O)C(=O)N[C@@H](Cc1ccccc1)C(=O)N[C@H](C(=O)N[C@@H](CC(N)=O)C(=O)N[C@@H](Cc1c[nH]c2ccccc12)C(=O)N[C@@H](CC(C)C)C(=O)N[C@H](C(=O)N[C@@H](CCC(N)=O)C(=O)N[C@H](C(=O)N[C@@H](CCCCN)C(=O)N[C@H](C(=O)N[C@H](C(=O)N[C@@H](CCCCN)C(=O)O)[C@@H](C)O)[C@@H](C)CC)[C@@H](C)O)[C@@H](C)CC)[C@@H](C)CC)C(=O)O
Turning to B4, in test [1], the “EC50 (nM) GIPR” value was 1 nM and the “Efficacy GIPR” value came to 92%.

B5: Compound no. 5 (peptide)
peptide: Palmitoyl-H[Aib]DGTFISDYST[Aib]LDNLAARDFINWLIQTKITK-OH
SMILES: CCCCCCCCCCCCCCCC(=O)N[C@@H](Cc1c[nH]cn1)C(=O)NC(C)(C)C(=O)N[C@@H](CC(=O)O)C(=O)NCC(=O)N[C@H](C(=O)N[C@@H](Cc1ccccc1)C(=O)N[C@H](C(=O)N[C@@H](CO)C(=O)N[C@@H](CC(=O)O)C(=O)N[C@@H](Cc1ccc(O)cc1)C(=O)N[C@@H](CO)C(=O)N[C@H](C(=O)NC(C)(C)C(=O)N[C@@H](CC(C)C)C(=O)N[C@@H](CC(=O)O)C(=O)N[C@@H](CC(N)=O)C(=O)N[C@@H](CC(C)C)C(=O)N[C@@H](C)C(=O)N[C@@H](C)C(=O)N[C@@H](CCCNC(=N)N)C(=O)N[C@@H](CC(=O)O)C(=O)N[C@@H](Cc1ccccc1)C(=O)N[C@H](C(=O)N[C@@H](CC(N)=O)C(=O)N[C@@H](Cc1c[nH]c2ccccc12)C(=O)N[C@@H](CC(C)C)C(=O)N[C@H](C(=O)N[C@@H](CCC(N)=O)C(=O)N[C@H](C(=O)N[C@@H](CCCCN)C(=O)N[C@H](C(=O)N[C@H](C(=O)N[C@@H](CCCCN)C(=O)O)[C@@H](C)O)[C@@H](C)CC)[C@@H](C)O)[C@@H](C)CC)[C@@H](C)CC)[C@@H](C)O)[C@@H](C)CC)[C@@H](C)O
Take B5: the “Efficacy GIPR” value in test [1] is 111%. In test [2], the “Efficacy GLP-2R” value was found to be 109% and the “logEC50 GLP-2R” value was determined as 9.

The record behind these values is patent US20250304643A1 (BAINAN BIOTECH, published 2025).
